Assay results as given in article PMC7928716.

Key:
[1] = target: AP2 μ2 160-435 (UniProt Q96CW1); experiment: FP displacement of FITC-ATG9A probe; conditions: reference: unphosphorylated peptide; sites Y781
[2] = target: AP2 μ2 160-435 (UniProt Q96CW1); experiment: fluorescence polarisation
[3] = target: FITC-labeled ACE2(775–790) peptide, pTyr781 (human); experiment: fluorescence polarisation
[4] = target: FITC-labeled ACE2(775–790) peptide, pSer783 (human); experiment: fluorescence polarisation
[5] = target: FITC-labeled ACE2(775–790) peptide, unphosphorylated (human); experiment: fluorescence polarisation
[6] = target: MAP1LC3B ATG8 (2–119) (human) (UniProt Q9GZQ8); experiment: fluorescence polarisation
[7] = target: MAP1LC3A ATG8 (2–119) (human) (UniProt Q9H492); experiment: fluorescence polarisation
[8] = target: MAP1LC3C ATG8 (2–125) (human) (UniProt Q9BXW4); experiment: fluorescence polarisation
[9] = target: GABARAP ATG8 (2-115) (human) (UniProt O95166); experiment: fluorescence polarisation
[10] = target: […]2 ATG8 (2–115) (human) (UniProt P60520); experiment: fluorescence polarisation
Sequence of […]2 ATG8 (2–115) (human) (P60520 2-115): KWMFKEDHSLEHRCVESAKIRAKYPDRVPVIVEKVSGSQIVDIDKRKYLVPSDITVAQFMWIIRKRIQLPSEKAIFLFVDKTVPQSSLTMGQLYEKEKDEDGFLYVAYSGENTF

Sequence of MAP1LC3C ATG8 (2–125) (human) (Q9BXW4 2-125): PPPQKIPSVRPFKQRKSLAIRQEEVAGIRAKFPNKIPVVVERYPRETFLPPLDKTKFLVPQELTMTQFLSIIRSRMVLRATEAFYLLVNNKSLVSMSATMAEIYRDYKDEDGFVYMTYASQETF
Sequence of GABARAP ATG8 (2-115) (human) (O95166 2-115): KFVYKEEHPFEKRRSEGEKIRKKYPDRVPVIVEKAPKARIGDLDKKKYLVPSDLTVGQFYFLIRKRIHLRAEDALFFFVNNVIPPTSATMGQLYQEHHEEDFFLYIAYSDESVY

Row | Substance | Kd [3] [µM] | Kd [4] [µM] | Kd [5] [µM] | Ki [6] [µM] | Ki [7] [µM] | Ki [8] [µM] | further results
1 | ACE2 775-790 (from UniProt Q9BYF1) pTyr781 peptide |  |  |  |  |  |  | Ki [1]: lost; reference 101 ± 5
2 | ACE2(775–790) peptide, unphosphorylated, unlabeled (displacing peptide) |  |  |  |  |  |  | Ki [2]: 101 µM
3 | AP2 μ2 (160–435) (from UniProt Q96CW1 160-435) (domain or fragment) | > 100 | 30 | 60 |  |  |  | 
4 | FYN SH2 (142–251) (from UniProt P06241 142-251) (domain or fragment) |  | > 100 | > 100 |  |  |  | 
5 | GABARAP ATG8 (2-115) (from UniProt O95166 2-115) (domain or fragment) | > 100 | > 100 | > 100 |  |  |  | 
6 | MAP1LC3A ATG8 (2–119) (from UniProt Q9H492 2-119) (domain or fragment) | > 100 | > 100 | > 100 |  |  |  | 
7 | NCK1 SH2 (275–377) (from UniProt P16333 275-377) (domain or fragment) | > 100 | > 100 | > 100 |  |  |  | 
8 | integrin β3 tail peptide, pSer778 |  |  |  | > 100 | 29.4 | 16.1 | 
9 | integrin β3 tail peptide, pThr777 |  |  |  | > 100 | > 100 | 73 | Ki [9]: 47 µM
10 | integrin β3 tail peptide, pThr779 |  |  |  | > 100 | > 100 | 82 | Ki [10]: > 100 µM
11 | integrin β3 tail peptide, pThr779/pTyr785 |  |  |  | 15 | 8.5 | 8 | Ki [9]: 17.8 µM
12 | integrin β3 tail peptide, pTyr785 |  |  |  | 81 | 38 | 83 | Ki [10]: 89 µM
13 | integrin β3 tail peptide, unphosphorylated |  |  |  | > 100 | > 100 | > 100 | Ki [10]: > 100 µM; Ki [9]: > 100 µM
